± gives the standard deviation.
Assay: protein stability index of a GFP-peptide fusion (GPS, HEK-293T) (PSI 1-6); higher = more stable
[1] = treatment: DMSO, c terminus: native
[2] = treatment: MLN4924 1 uM, 8 h, c terminus: native
[3] = treatment: DMSO, c terminus: a fixed tail appended
[4] = treatment: MLN4924 1 uM, 8 h, c terminus: a fixed tail appended
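Note: 24-mer peptide tiles fused after GFP, lentivirally expressed, FACS-sorted into six equal bins by GFP/DsRed ratio, decoded by Illumina sequencing, PSI is the read-weighted mean bin number.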

Sequence | protein stability index [1] | protein stability index [2] | protein stability index [3] | protein stability index [4]
LLREEEYVAPPRGPLPTLQVVPL [TRAF3IP2] | 2.35 ± 0.3 | 2.05 ± 0.33 |  | 
SSWDIDGRATKRRKKSGDLKKAKV [FBXO34] |  |  | 4.8 ± 0.29 | 4.79 ± 0.11
SEEAAVLQYASLVGQKCSERMLLF [ATE1] |  |  | 2.37 ± 0.4 | 2.19 ± 0.34
RMLQREGCFRSQGASLRLAVEDGL [M1AP] |  |  | 3.1 ± 0.22 | 2.94 ± 0.14
LVGKPKIFIIQACRGNQHDVPVIP [CASP6] |  |  | 2.56 ± 0.66 | 2.1 ± 0.2
YVGEPLVCEVQVHGGSLLGKKYNW [GFOD1] |  |  | 2.61 ± 0.62 | 2.18 ± 0.42
AQRPGITHGVGLVLRVEQQPHLPL [SCNN1D] |  |  | 2.59 ± 0.17 | 2.85 ± 0.15
PPNQQMSPSPMSHGHYSMHCLHSA [DLX1] |  |  | 3.1 ± 0.31 | 3.13 ± 0.15
CDPGMTAFEPEALGNLVEGLDFHR [CAMK2A] |  |  | 4.17 ± 0.096 | 4.2 ± 0.19
MSSASGLRRGHPAGGEENMTETDA [CASP6] |  |  | 5.3 ± 0.33 | 5.39 ± 0.16
LGAGGGSLLPGAVEQPQPQFISRF [NEK8] |  |  | 3.14 ± 0.21 | 3.32 ± 0.46
CHLNGIVHRDLKPENLLLASKSKG [CAMK2D] |  |  | 3.52 ± 0.36 | 3.56 ± 0.19
VAPPEDKESESEAKVDGETASDSE [CDS2] |  |  | 5.55 ± 0.23 | 5.61 ± 0.18
IGALTYFAQADALKGTLVSTLKEV [ACSBG2] |  |  | 2.21 ± 0.41 | 2.25 ± 0.56
FQEQVEKLKALHVDSAEYSCLKAI [NR2F2] |  |  | 3.61 ± 0.2 | 3.74 ± 0.23
WFGASVLSLLELLELLLDASALTL [SCNN1D] |  |  | 2.54 ± 0.74 | 2.15 ± 0.31
GSKGEKDLGASSLHVNGESLEMDS [EHMT1] |  |  | 5.28 ± 0.26 | 5.39 ± 0.27
SVPPVAGAPSVGQPGAGFGMPPAG [SNAP91] |  |  | 4.38 ± 0.24 | 4.38 ± 0.058
QLRNCLRILMGELSNHHDHHDEFC [BEX3] |  |  | 2.28 ± 0.41 | 2.21 ± 0.12
RKPDPMCVFTYVQSLYNHLRRFE [SMTNL2] | 2.74 ± 0.62 | 2.72 ± 0.36 |  | 
VRNDSCVVHEDFREDILSCYDVYS [PKD2L1] |  |  | 2.99 ± 0.34 | 3.16 ± 0.28
LRSRYSVASFKFDAGEVSYLPRDF [MYORG] |  |  | 2.37 ± 0.12 | 2.42 ± 0.37
TSIEEGYERSFIHKIKHKHILAKN [IQUB] |  |  | 3.14 ± 0.16 | 3.29 ± 0.55

Sequence | protein stability index [1] | protein stability index [2] | protein stability index [3] | protein stability index [4]
RAGTEPSDAIRVVNAVLTQIDQIK [TRIP13] |  |  | 3.37 ± 0.15 | 3.04 ± 0.27
TPTSLSSLSNAVANTMEHLSLLDN [FBXO33] |  |  | 4.44 ± 0.065 | 4.44 ± 0.21
TPEEQGELEPLKGNFDWEAIFDAG [FOXJ1] |  |  | 5.29 ± 0.28 | 5.41 ± 0.088
TVDKCFGRKKYDIDPRNGIPKLTP [SPATS1] |  |  | 3.45 ± 0.36 | 3.51 ± 0.23
NISGHTNTNTLKVPECRLAEDLGN [SPOPL] |  |  | 3.53 ± 0.26 | 3.7 ± 0.19
VKSNTEQMREAFATAFSKLKPESS [ZBED1] |  |  | 4.34 ± 0.24 | 4.27 ± 0.18
ISCVERGWSTPPKCRSTISAEKCG [CFHR2] |  |  | 2.88 ± 0.14 | 3.09 ± 0.32
VVVESMEQDRIPEVHVPPSSAVSG [MIA2] |  |  | 4.45 ± 0.36 | 4.48 ± 0.2
RGFSGGILAFLVLEAVAGALVVAL [TSPAN10] |  |  | 2.78 ± 0.9 | 2.43 ± 0.41
EIELQAQHNLRYSLENTLTESEAR [KRT33B] |  |  | 4.7 ± 0.2 | 4.48 ± 0.18
VPVRRPARRRQSAGPWPRPKGSLS [RASAL3] |  |  | 4.73 ± 0.25 | 4.68 ± 0.23
REMSKTFIIGELHPDDRPKLNKPP [CYB5A] |  |  | 3.95 ± 0.23 | 4.05 ± 0.28
ILIQHQKAKHFKCHICHKKLYTGP [ZNF207] |  |  | 2.44 ± 0.12 | 1.88 ± 0.38
EALKHPWICQRSTVASMMHRQETV [CAMK2D] |  |  | 2.81 ± 0.28 | 2.73 ± 0.25
LMAEGLLPAVKVFLDWLRTNPDLI [SMG5] |  |  | 2.57 ± 0.38 | 2.6 ± 0.56
KKALSGLSSRWKNWWIRGILTLTM [CDS1] |  |  | 2.14 ± 0.091 | 2.22 ± 0.19
MYDEKAHEWKSLAPMDAPRYQHGI [KLHL13] |  |  | 3.15 ± 0.21 | 3.4 ± 0.17
GLPGPEAARSGDAAANKLFHYIPG [PLEKHN1] |  |  | 3.93 ± 0.38 | 4.15 ± 0.42
TSSAKVDMTFEEEAQLLQLKVKCL [FKBP8] |  |  | 3.48 ± 0.28 | 3.54 ± 0.33
IPPPLSSVYAWGGGLGTPLRLPML [NEK8] |  |  | 2.32 ± 0.087 | 2.32 ± 0.034
DELVGLPFSSHTYSQASELPTDAV [FBXO34] |  |  | 4.95 ± 0.18 | 4.81 ± 0.081
VKVTFNKQDSLVILTIMATLKIRN [TMEM106C] |  |  | 2.92 ± 0.53 | 2.89 ± 0.32
NRFVQLSGRPHLPGKKKIRWDPVR [KLHDC10] |  |  | 2.5 ± 0.6 | 2.49 ± 0.52

Sequence | protein stability index [1] | protein stability index [2] | protein stability index [3] | protein stability index [4]
IGYVHIYLKGQREKSEKINAMLKG [GOSR1] |  |  | 2.21 ± 0.14 | 2.67 ± 0.17
PKELSSFSFSMKGHEKTAKSKTRS [DLC1] |  |  | 4.73 ± 0.31 | 4.78 ± 0.21
ADWAVMDVVNYFRTVGFEEQASAF [SAMD13] |  |  | 2.21 ± 0.3 | 2.59 ± 0.19
GELGSIGDHERAIDFSPYLEPLGA [CEBPB] |  |  | 4.21 ± 0.6 | 4.18 ± 0.32
VLVLAVQVHAWQLYYSKKLLDSWF [JAGN1] |  |  | 3.23 ± 0.49 | 3.06 ± 0.91
EALVRTVLRAGDREDITEPAICAL [CTNNB1] |  |  | 3.45 ± 0.29 | 3.6 ± 0.51
YDPNYMSPFAQFACDNGLNVRGGK [PPTC7] |  |  | 3.63 ± 1 | 4.11 ± 0.43
AEMAEDYPRYPDIHDLDLTLLNPR [CLCN6] |  |  | 4.05 ± 0.28 | 4.21 ± 0.25
LDMRRDHEEQLQRLKLLKDREVDA [FBF1] |  |  | 5.08 ± 0.21 | 4.91 ± 0.3
ARIVEIYSRRLQVQERLTKQIAVA [GCH1] |  |  | 2.33 ± 0.37 | 2.37 ± 0.2
MATESVDHELGRCTDSVVKYELMR [EHMT1] |  |  | 3.65 ± 0.29 | 3.69 ± 0.19
GSSGPAGLTLGRSFSNYRPFEPQA [SEPHS2] |  |  | 3.22 ± 0.12 | 3.28 ± 0.16
TKLEAEIVTLRHVLAAKERRCGEL [TPD52L3] |  |  | 2.89 ± 0.22 | 2.78 ± 0.35
QLEKPKPVKPVTFSTGIKMGQHIS [MNAT1] |  |  | 3.36 ± 0.15 | 3.44 ± 0.41
SDHCITSSDMMDSSSFSNLDLSEE [VDR] |  |  | 5.48 ± 0.13 | 5.42 ± 0.16
IKSVLWQTLQALNFCHIHNCIHRD [CDKL4] |  |  | 3.15 ± 0.99 | 2.99 ± 0.72
SQITDSEHNSSLVSQQTGSPGKQP [ZNF8] |  |  | 5.33 ± 0.16 | 5.26 ± 0.23
MKQRIAEENIMKSNIDKKFSAHYD [FAM50A] |  |  | 3.85 ± 0.2 | 3.97 ± 0.14
AGFDALQGDPKGEMAATPAGFAQL [HDAC6] |  |  | 4.37 ± 0.21 | 4.09 ± 0.36
DISPPIFRRGEKLRVISDEGGWWK [SLA] |  |  | 3.02 ± 0.71 | 2.87 ± 0.42
APRVRTAFTMEQVRTLEGVFQHHQ [VENTX] |  |  | 3.33 ± 0.22 | 3.26 ± 0.22
KYKVHGKEILRTLQDVFCWLPLAT [PPEF2] |  |  | 3.08 ± 0.62 | 3.3 ± 1.7
KKSGEKEQHISKCKKAFREGSRKS [KMT2E] |  |  | 4.23 ± 0.78 | 4.61 ± 0.27

Sequence | protein stability index [1] | protein stability index [2] | protein stability index [3] | protein stability index [4]
INVGGIKYSLPWTTLDEFPLTRLG [KCNG1] |  |  | 2.17 ± 0.6 | 2.06 ± 0.13
AHLGEEAHKCLECGKCFSQNTHLT [ZNF263] |  |  | 3.45 ± 0.34 | 3.55 ± 0.48
GIVGGFTQMIREGGARSLWRGNGI [SLC25A25] |  |  | 2.22 ± 0.093 | 2.27 ± 0.2
EDWLSHALSRKKSQGLAREQHAGT [FBF1] |  |  | 3.9 ± 0.23 | 4.04 ± 0.14
NKNEVFYQCPDQMARNPAAIDMFI [FBXO3] |  |  | 2.42 ± 0.17 | 2.65 ± 0.48
GRLPRIPQVLSQEFTELLKVMIHP [WEE1] |  |  | 2.48 ± 0.53 | 2.47 ± 0.45
GVSRGVGFIRFDKRIEAEEAIKGL [ELAVL3] |  |  | 3.572 ± 0.035 | 4.05 ± 0.57
WFQDPTRFTGTMDAFVKIVRHEGT [SLC25A39] |  |  | 2.17 ± 0.25 | 2.23 ± 0.37
ALRGAAVDEYFRQPVVDTFDIRIL [CARM1] |  |  | 2.48 ± 0.45 | 2.6 ± 0.27
IFQEQQKKWQQYRSVRRERLKEMK [FAM9B] |  |  | 3.22 ± 0.29 | 3.22 ± 0.39
NENDFYDGAWCAGRNDLQQWIEVD [CPXM2] |  |  | 4.22 ± 0.46 | 4.05 ± 0.3
AIPEAIGFVMVPFEYRGEQHKTCM [EDNRA] |  |  | 2.36 ± 0.32 | 2.31 ± 0.27
SMLSKNPEDRPSLDDIIRHDFFLQ [PLK2] |  |  | 3 ± 0.21 | 3.19 ± 0.32
NSGLKPKDNEFTSKPWHWPINYQG [POMT2] |  |  | 2.99 ± 0.18 | 3.24 ± 0.27
VTQDGRKIYFTDSSSKWQRRDYLL [APMAP] |  |  | 2.51 ± 0.18 | 2.41 ± 0.63
LKSKAEAEALYQTKFQELQLAAGR [KRT71] |  |  | 3.73 ± 0.22 | 3.85 ± 0.41
AQHKDRSTQLEMQLEKPKPVKPVT [MNAT1] |  |  | 4.71 ± 0.24 | 4.82 ± 0.36
PPSMVAAGSVVAAVQGLNLRSPNN [CCND1] |  |  | 4.31 ± 0.17 | 4.3 ± 0.26
GDEISIKKKNTNKQEMGTYLRFIV [ZMYND11] |  |  | 2.12 ± 0.087 | 2.12 ± 0.24
RSKESKDCSGLVLLCLFFGIPWEA [PCDHGA10] |  |  | 3.15 ± 0.37 | 2.48 ± 0.61

Reference: the supplement of paper PMC10567573
